# B1: afRio1 (Rio1 kinase) (Archaeoglobus fulgidus DSM 4304) (protein)
# chain: MKDLKKIESYLDKLRIKEKDGEERKIYAEVLDGRTLKTLYKLSAKGYITAMGGVISTGKEANVFYADGVFDGKPVAMAVKIYRIETSEFDKMDEYLYGDERFDMRRISPKEKVFIWTEKEFRNLERAKEAGVSVPQPYTYMKNVLLMEFIGEDELPAPTLVELGRELKELDVEGIFNDVVENVKRLYQEAELVHADLSEYNIMYIDKVYFIDMGQAVTLRHPMAESYLERDVRNIIRFFSKYGVKADFEEMLKEVKGE
# notes: full-length
# Substrate: Nc1ncnc2c1ncn2[C@@H]1O[C@H](COP(=O)(O)OP(=O)(O)OP(=O)(O)O)[C@@H](O)[C@H]1O
# Assay: purified protein
# Format: biochemical, Archaeoglobus fulgidus
# Details: Mg2+ ATP binding pocket
protein,measurement,value
B1,Km,0.4 µM
same,Vmax,0.000156 µmol/min
